Article PMC2710984 (International Journal of Peptide Research and Therapeutics, 2006)
Square brackets hold non-standard residues; d marks the D form. Ends that are not written are not given here. Gly(cPr) = N[C@H](C(=O)O)C1CC1; Chg = N[C@H](C(=O)O)C1CCCCC1; Pip = O=C(O)[C@@H]1CCCCN1; Abu = CC[C@H](N)C(=O)O; Aib = CC(C)(N)C(=O)O

target: GST–BIR3 fusion protein (XIAP BIR3 domain); assay: FMAT bead-based fluorescence competition assay

Point of comparison: [Abu]VPF-NH2 [Abu–VPF (compound 9)], IC50 120 nM. Against it:
- [Aib]VPF-NH2 [Dmg–VPF (compound 11)] — higher, > 1600 nM
- [Gly(cPr)]VPF-NH2 [Cpg–VPF (compound 12)] — higher, > 1600 nM
- [Chg]VPF-NH2 [Chx–VPF (compound 13)] — higher, > 1600 nM
- A[Gly(cPr)]PF-NH2 [A–Cpg–PF (compound 18)] — higher, > 1600 nM
- AV[Pip]F-NH2 [AV–Pip–F (compound 21)] — 5.9-fold higher, 710 nM
